Measurements: publication PMC4837482, “The complex binding mode of the peptide hormone H2 relaxin to its receptor RXFP1” (Nature Communications, 2016)
Where no end group is shown, it is not given here. The star is where a group is joined. DTPA = O=C(O)CN(CCN(CC(=O)O)CC(=O)O)CCN(CC(=O)O)CC(=O)*

Experiments:
Test in all cases: europium-labelled ligand saturation binding on cells (time-resolved fluorescence); HEK293T cells transiently transfected with receptor, 96-well plates; increasing Eu-H2 relaxin (maximum 15 nM) with or without 1 μM unlabelled H2 relaxin, 1 h, room temperature; 20 mM HEPES pH 7.5, […] CaCl2, 50 mM NaCl, 0.01% NaN3, 1% BSA; one-site fit
[1] = molecular target: RXFP1 T61A, full length (human)
[2] = molecular target: RXFP1 N43A, full length (human)
[3] = molecular target: RXFP1 F54A/Y58A, full length (human)
[4] = molecular target: RXFP1 N44A, full length (human)
[5] = molecular target: RXFP1 W46A, full length (human)
[6] = molecular target: RXFP1 F54A, full length (human)
[7] = molecular target: RXFP1 N43A/N44A, full length (human)
[8] = molecular target: RXFP1 G45A, full length (human)
[9] = molecular target: RXFP1 A55S, full length (human)
[10] = molecular target: RXFP1 C40A^ins, full length (human)
[11] = molecular target: RXFP1 Y57A, full length (human)
[12] = molecular target: T1, RXFP1 D51A, full length (human)
T1 sequence (Q9HBX9 1-757 with D51A, looked up): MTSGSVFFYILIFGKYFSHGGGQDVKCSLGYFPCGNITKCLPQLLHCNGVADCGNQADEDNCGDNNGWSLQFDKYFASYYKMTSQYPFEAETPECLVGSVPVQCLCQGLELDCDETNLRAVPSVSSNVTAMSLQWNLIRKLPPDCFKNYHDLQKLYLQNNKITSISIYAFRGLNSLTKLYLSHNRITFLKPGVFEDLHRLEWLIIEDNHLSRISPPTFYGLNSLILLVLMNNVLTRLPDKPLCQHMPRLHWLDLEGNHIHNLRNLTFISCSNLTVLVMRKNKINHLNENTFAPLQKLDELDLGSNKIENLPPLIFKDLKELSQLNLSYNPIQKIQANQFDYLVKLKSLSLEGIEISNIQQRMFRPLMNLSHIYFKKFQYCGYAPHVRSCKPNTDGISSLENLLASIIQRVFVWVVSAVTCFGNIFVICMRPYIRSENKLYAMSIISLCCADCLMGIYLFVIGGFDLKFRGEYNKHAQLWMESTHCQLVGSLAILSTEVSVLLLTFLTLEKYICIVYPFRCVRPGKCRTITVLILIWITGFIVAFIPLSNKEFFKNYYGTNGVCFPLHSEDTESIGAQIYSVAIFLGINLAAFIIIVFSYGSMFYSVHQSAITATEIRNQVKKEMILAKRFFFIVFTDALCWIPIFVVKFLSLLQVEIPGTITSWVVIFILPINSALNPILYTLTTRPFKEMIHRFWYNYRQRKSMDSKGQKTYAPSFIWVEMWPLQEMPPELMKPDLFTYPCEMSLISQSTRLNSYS

B1: Europium-labelled H2 relaxin (ligand, human)
chain 1: {DTPA}-QLYSALANKCCHVGCTKRSLARFC
chain 2: DSWMEEVIKLCGRELVRAQIAICGMSTWS
modifications: not fully specified; ends and bridges not checked; also: DTPA cage loaded with Eu^3+
notes: A chain of human gene-2 (H2) relaxin; numbers count on: the A chain; B chain of human gene-2 (H2) relaxin; numbers count on: the B chain; also called Eu-H2 relaxin; Eu-H2
[1]
  Kd: 0.69 nM
[2]
  Kd: 2.55 nM
[3]
  Kd: 6.51 nM
[4]
  Kd: 0.81 nM
[5]
  Kd: 12.3 nM
[6]
  Kd: 2.43 nM
[7]
  Kd: 3.28 nM
[8]
  Kd: 19.1 nM
[9]
  Kd: 0.8 nM
[10]
  Kd: 3.92 nM
[11]
  Kd: 0.81 nM
[12]
  Kd: 0.73 nM
